Experimental data from patent US12356911B2, “Group of UDP-glycosyltransferase for catalyzing carbohydrate chain elongation and application thereof” (GSYNBIOT (SHANGHAI) CO., LTD, priority 2017, dated 2025).
Changes are numbered by the printed parent chain.

B1: GT29-32: Ginseng UDP-glycosyltransferase, 442 amino acids, SEQ ID NO: 4 (protein)
chain: MDNQEGRISIALLPFLAHGHISPFFELAKQLAKRNCNVFLCSTPINLSSIKNKDSSASIKLVELHLPSSPDLPPHYHTTNGLPSHLMVPLRNAFETAAPTFSEILKTLNPDLLIYDFNPSWAPEIASSHNIPAVYFLTSAAATSSMGLHAFKNSGEKYPFPDFYDNSNITPEPPSADKMKLFHDFVACFKRSCDIILIKSFRELEGKYIDFLSTLSKKTLVPVGPLVQDPMGHDEDPKTGHLINWLDKRAESTVVFVCFGSEYFPSNEELEELAIGLEISMVSFILAVRFPEGEKKGILPEGFVQRVGDRGLVVEGWAPQARILGHSSTGGFVSHCGWSSIMESVKFGVPVIAMARHLDQPLNAKLAAEVGVGMEVMRDENGKYKREAIAEVIRKVVMEKNGEVMRRKARELSEKMKEIGEQLIDRAVEELVQICKKKKDEQ
modifications: misc_feature - GT29-32; Panax ginseng
B2: GT29-34: Ginseng UDP-glycosyltransferase, 446 amino acids, SEQ ID NO: 8 (protein)
chain: MDIEKGRIIIVMLPFLAHGHISPFFELAKHLSKRNCNIFLCSTPINLSSIKNRVSDKDSSASIKLVELHLPSSPDLPPHYHTTNGLPSHLMVPLRNAFETAAPTFSEILKTLNPDLLIYDFNPSWAPEIASSHNIPAVYFLTSAAATSSMGLHAFKNSGEKYPFPDFYDNSNITPEPPSADKMKLFHDFVACFKRSCDIILIKSFRELEGKYIDFLSTLSKKTLVPVGPLVQDPMGHDEDPKTGHLINWLDKRAESTVVFVCFGSEYFPSNEELEELAIGLEISMVSFILAVRFPEGEKKGILPEGFVQRVGDRGLVVEGWAPQARILGHSSTGGFVSHCGWSSIMESVKFGVPVIAMARHLDQPLNAKLAAEVGVGMEVMRDENGKYKREGIAEVIRKVVVEKSGEVMRRKARELSEKMKEKGEEEIDRAVEELVQICKKKKDAQ
modifications: misc_feature - GT29-34; Panax ginseng
B3: GT29-25: Ginseng UDP-glycosyltransferase, 446 amino acids, SEQ ID NO: 30 (protein)
chain: MDNQKGRISIVMLPFLAHGHISPFFELAKHLSKRNCNIFLCSTPINLSSIKNRISDKDSSASIKLVELHLPSSPDLPPHYHTTNGLPSHLMVPLRNAFETAAPTFSEILKTLNPDLLIYDFNPSWAPEIASSHNIPAVCFIIGGAASFSMSLHSFKNPGEKYPFLDFDDNSNITPEPPSADNMKLLLDFMTCFERSCDIILIKSFRELEGKYFDFYSTLSDKTLVPVGPLVQDPMGHNEDPKTEQFINWLDKRAESTVVFVCFGSEYFLSNEELEEVAIGLEISMVNFIWAVRLIEGEKKGVLPEGFVQRVGDRGLVVEGWAPQARILGHSSTGGFVSHCGWSSITESMKFGVPVIAMARHFDQPLNAKLAAEVGVGTEVVRDENGKYKREDIAGVIRKVVVEKSGEVIRRKARELSEKMKEIGEQLIDRAVEELVQICKKKKDEQ
modifications: misc_feature - GT29-25; Panax ginseng
B4: GT29-24: Ginseng UDP-glycosyltransferase, 446 amino acids, SEQ ID NO: 28 (protein)
chain: B3 chain with T378M, D392G, G395E, I409M, I423K, Q426E, L427E, E445A
modifications: misc_feature - GT29-24; Panax ginseng

How the values were obtained:
Type in all cases: biochemical
[1] = In vitro transglycosylation at C-20, Rd as glycosyl acceptor, UDP-xylose as donor; conditions: crude enzyme (E. coli lysate supernatant); TLC and HPLC, FIG. 2, FIG. 4
[2] = In vitro transglycosylation at C-20, CK as glycosyl acceptor, UDP-glucose as donor; conditions: crude enzyme (E. coli lysate supernatant); TLC/HPLC, FIG. 2, 3, 12, 16
Excerpt: (§1) Cell lysate of recombinant E. coli with empty vector pET28a was used as a control.
As shown in FIG. 16: Protopanaxadiol Ginsenoside CK is used as a glycosyl acceptor, and UDP-glucose is used as a glycosyl donor.

[3] = In vitro transglycosylation at C-20, F1 as glycosyl acceptor, UDP-glucose as donor; conditions: crude enzyme (E. coli lysate supernatant); TLC and HPLC, FIG. 5, FIG. 6
[4] = In vitro transglycosylation at C-20, Rd as glycosyl acceptor, UDP-glucose as donor; conditions: crude enzyme (E. coli lysate supernatant); TLC/HPLC, FIG. 2, 3, 11
Excerpt: as §1

[5] = In vitro transglycosylation at C-20, CK as glycosyl acceptor, UDP-arabinose as donor; conditions: crude enzyme (E. coli lysate supernatant); TLC, FIG. 17
[6] = In vitro transglycosylation at C-3, F2 as glycosyl acceptor, UDP-glucose as donor; conditions: crude enzyme (E. coli lysate supernatant)
[7] = In vitro transglycosylation at C-3, Rh2 as glycosyl acceptor, UDP-glucose as donor; conditions: crude enzyme (E. coli lysate supernatant); TLC, FIG. 13, FIG. 15
Excerpt: as §1

[8] = In vitro transglycosylation at C-6, Rg1 as glycosyl acceptor, UDP-xylose as donor; conditions: crude enzyme (E. coli lysate supernatant); TLC and HPLC, FIG. 7-9

| Molecule | product formation from Rd and UDP-xylose (one product with the mobility of Rb3) [1] | product formation from CK and UDP-glucose (Gypenoside LXXV) [2] | product formation from F1 and UDP-glucose [3] | product formation from Rd and UDP-glucose (Rb1) [4] | product formation from CK and UDP-arabinose (Ginsenoside F3) [5] | product formation from F2 and UDP-glucose (Rd) [6] | product formation from Rh2 and UDP-glucose (Rg3) [7] | product formation from Rg1 and UDP-xylose (notoginsenoside R1) [8] |
| --- | --- | --- | --- | --- | --- | --- | --- | --- |
| B1 | can catalyze Rd to produce three products | can catalyze the formation of a new product | can catalyze the formation of a new product | can catalyze the formation of Rb1 | can catalyze the first glycosyl of C-20 of CK to extend an arabinosyl to generate Ginsenoside F3 | – | – | – |
| B2 | – | can catalyze the formation of a new product | – | can catalyze the formation of Rb1 | can catalyze the first glycosyl of C-20 of CK to extend an arabinosyl to generate Ginsenoside F3 | – | – | – |
| B3 | – | – | – | – | – | can further catalyze the extension of a glucosyl at the C-3 glycosyl of F2 to produce ginsenoside Rd | catalyze the production of ginsenoside Rg3 | can catalyze the formation of Notoginsenoside RI |
| B4 | – | – | – | – | – | can further catalyze the extension of a glucosyl at the C-3 glycosyl of F2 to produce ginsenoside Rd | catalyze the production of ginsenoside Rg3 | can catalyze the formation of Notoginsenoside RI |
